Results on 3 molecules are retold here after patent US20140274782A1, “AFFINITY REAGENTS AND METHODS FOR DETECTION, PURIFICATION, AND PROTEOMIC ANALYSIS OF METHYLATED PROTEINS” (The Board of Trustees of the Leland Stanford Junior …, priority 2013, published 2014).

The target in assay [1] is T1, G9a and GLP (Homo sapiens, UniProt Q96KQ7+Q9H9B1).
T1 sequence (Q96KQ7 2-1210 limits assumed): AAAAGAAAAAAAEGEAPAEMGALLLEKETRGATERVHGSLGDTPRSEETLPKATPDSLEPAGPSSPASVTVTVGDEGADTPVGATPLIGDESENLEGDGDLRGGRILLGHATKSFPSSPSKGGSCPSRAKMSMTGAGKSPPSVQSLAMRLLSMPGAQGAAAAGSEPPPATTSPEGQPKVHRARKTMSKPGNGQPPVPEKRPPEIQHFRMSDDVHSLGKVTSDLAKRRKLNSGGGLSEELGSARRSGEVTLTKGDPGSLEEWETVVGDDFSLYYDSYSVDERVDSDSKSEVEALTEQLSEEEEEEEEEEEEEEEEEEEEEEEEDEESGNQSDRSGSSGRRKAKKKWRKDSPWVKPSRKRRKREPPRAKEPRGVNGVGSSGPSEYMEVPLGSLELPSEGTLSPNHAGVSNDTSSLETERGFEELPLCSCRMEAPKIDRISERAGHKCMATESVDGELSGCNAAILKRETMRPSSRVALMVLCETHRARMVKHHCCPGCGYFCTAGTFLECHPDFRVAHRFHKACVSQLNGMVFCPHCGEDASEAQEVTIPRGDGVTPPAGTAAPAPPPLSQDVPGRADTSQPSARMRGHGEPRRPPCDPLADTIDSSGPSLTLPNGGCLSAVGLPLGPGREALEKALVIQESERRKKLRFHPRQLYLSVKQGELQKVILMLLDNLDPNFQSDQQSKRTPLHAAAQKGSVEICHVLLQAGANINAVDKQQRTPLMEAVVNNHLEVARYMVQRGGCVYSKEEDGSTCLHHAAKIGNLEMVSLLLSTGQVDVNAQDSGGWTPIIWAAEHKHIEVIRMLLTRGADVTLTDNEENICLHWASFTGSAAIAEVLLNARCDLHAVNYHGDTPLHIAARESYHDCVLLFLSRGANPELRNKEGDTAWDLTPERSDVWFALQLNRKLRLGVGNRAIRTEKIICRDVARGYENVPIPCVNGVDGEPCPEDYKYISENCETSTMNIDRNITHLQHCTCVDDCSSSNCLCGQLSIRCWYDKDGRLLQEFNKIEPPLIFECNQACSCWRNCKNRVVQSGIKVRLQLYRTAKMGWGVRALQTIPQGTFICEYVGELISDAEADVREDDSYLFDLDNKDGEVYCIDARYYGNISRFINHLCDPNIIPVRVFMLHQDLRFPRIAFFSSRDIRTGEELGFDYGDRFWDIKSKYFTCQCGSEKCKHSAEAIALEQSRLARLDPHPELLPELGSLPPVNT
T1 sequence (Q9H9B1 2-1298 limits assumed): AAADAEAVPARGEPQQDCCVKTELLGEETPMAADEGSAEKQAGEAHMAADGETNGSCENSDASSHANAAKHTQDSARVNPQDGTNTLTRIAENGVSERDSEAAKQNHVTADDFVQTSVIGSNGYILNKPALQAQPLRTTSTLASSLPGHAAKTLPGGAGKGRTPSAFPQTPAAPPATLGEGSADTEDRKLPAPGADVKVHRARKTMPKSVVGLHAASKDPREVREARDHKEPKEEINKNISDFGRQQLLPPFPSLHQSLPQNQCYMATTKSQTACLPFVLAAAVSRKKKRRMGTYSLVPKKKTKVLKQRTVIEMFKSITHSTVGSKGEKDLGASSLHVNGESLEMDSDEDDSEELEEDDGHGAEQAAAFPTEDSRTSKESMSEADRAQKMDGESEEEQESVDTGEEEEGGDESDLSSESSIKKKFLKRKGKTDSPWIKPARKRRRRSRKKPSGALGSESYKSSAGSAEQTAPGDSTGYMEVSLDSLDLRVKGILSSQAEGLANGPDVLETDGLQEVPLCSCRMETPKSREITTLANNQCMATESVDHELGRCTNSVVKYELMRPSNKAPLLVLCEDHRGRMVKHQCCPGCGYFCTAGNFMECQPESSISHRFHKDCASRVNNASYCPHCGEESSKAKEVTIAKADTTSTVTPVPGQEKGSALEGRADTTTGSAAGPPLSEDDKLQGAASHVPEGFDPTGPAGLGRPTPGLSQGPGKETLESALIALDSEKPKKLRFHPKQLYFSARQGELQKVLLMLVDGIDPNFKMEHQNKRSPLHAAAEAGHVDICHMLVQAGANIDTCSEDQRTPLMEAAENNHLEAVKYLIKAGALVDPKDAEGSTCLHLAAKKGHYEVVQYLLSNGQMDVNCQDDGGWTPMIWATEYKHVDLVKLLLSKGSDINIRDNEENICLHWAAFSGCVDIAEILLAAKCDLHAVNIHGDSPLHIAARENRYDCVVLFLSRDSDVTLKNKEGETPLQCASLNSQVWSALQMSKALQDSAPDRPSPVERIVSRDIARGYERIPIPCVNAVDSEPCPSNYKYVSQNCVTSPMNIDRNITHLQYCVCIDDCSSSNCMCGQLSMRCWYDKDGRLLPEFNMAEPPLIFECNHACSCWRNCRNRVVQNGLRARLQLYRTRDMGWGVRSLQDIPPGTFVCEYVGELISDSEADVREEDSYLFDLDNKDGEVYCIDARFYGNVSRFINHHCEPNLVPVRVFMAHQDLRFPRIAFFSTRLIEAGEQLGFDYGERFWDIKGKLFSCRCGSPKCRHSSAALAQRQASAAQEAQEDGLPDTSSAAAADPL
As to the kind of experiment: Triple SILAC pull-down after UNC0638 treatment of 293T cells, DMSO/UNC0638 ratio of protein captured by 3×MBT.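 For all read-outs here: mass spectrometry (Q-Exactive) SILAC quantitation, DMSO/UNC0638 ratio computed after subtracting 3×MBTD355N mutant pull-down background, only proteins with at least twofold 3×MBT over mutant signal considered.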 Particulars: all values in log base 2; for Relative to UNC0638 UNC Heavy / Relative to UNC0638 UNC Light: SILAC ratio DMSO relative to UNC0638, pull-down with 3xMBT; for Relative to UNC0638 UNC Heavy: UNC0638 in heavy SILAC media; for Relative to UNC0638 UNC Light: UNC0638 in light SILAC media; for Relative to UNC0638 Average: average of UNC Light and UNC Heavy experiments. It counts as cell-based. Also noted: endogenous in cells; host or cells: HEK 293T.

Assay [2] deals with 3×MBT domain of L3MBTL1. As to the kind of experiment: Triple SILAC pull-down, 3xMBT/3xMBTD355N ratio (cytoplasmic, nuclear and chromatin fractions of 293T cells).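 For all read-outs here: proteins quantified with MaxQuant, requiring at least two unique peptides and quantification in both label directions, normalized to the mean of proteins from a digested loading control.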 The format is binding, human. Particulars: SILAC ratio 3xMBT vs 3xMBTD355N pull-down, 293T cells, all values in log base 2; for 3xMBT/D355N UNC Heavy: experiment with UNC0638 in heavy SILAC media; for 3xMBT/D355N UNC Light: experiment with UNC0638 in light SILAC media.

B1: MARS (protein, UniProt P56192 1-900, looked up)
Methionine--tRNA ligase, …: MRLFVSDGVPGCLPVLAAAGRARGRAEVLISTVGPEDCVVPFLTRPKVPVLQLDSGNYLFSTSAICRYFFLLSGWEQDDLTNQWLEWEATELQPALSAALYYLVVQGKKGEDVLGSVRRALTHIDHSLSRQNCPFLAGETESLADIVLWGALYPLLQDPAYLPEELSALHSWFQTLSTQEPCQRAAETVLKQQGVLALRPYLQKQPQPSPAEGRAVTNEPEEEELATLSEEEIAMAVTAWEKGLESLPPLRPQQNPVLPVAGERNVLITSALPYVNNVPHLGNIIGCVLSADVFARYSRLRQWNTLYLCGTDEYGTATETKALEEGLTPQEICDKYHIIHADIYRWFNISFDIFGRTTTPQQTKITQDIFQQLLKRGFVLQDTVEQLRCEHCARFLADRFVEGVCPFCGYEEARGDQCDKCGKLINAVELKKPQCKVCRSCPVVQSSQHLFLDLPKLEKRLEEWLGRTLPGSDWTPNAQFITRSWLRDGLKPRCITRDLKWGTPVPLEGFEDKVFYVWFDATIGYLSITANYTDQWERWWKNPEQVDLYQFMAKDNVPFHSLVFPCSALGAEDNYTLVSHLIATEYLNYEDGKFSKSRGVGVFGDMAQDTGIPADIWRFYLLYIRPEGQDSAFSWTDLLLKNNSELLNNLGNFINRAGMFVSKFFGGYVPEMVLTPDDQRLLAHVTLELQHYHQLLEKVRIRDALRSILTISRHGNQYIQVNEPWKRIKGSEADRQRAGTVTGLAVNIAALLSVMLQPYMPTVSATIQAQLQLPPPACSILLTNFLCTLPAGHQIGTVSPLFQKLENDQIESLRQRFGGGQAKTSPKPAVVETVTTAKPQQIQALMDEVTKQGNIVRELKAQKADKNEVAAEVAKLLDLKKQLAVAEGKPPEAPKGKKKK
Turning to B1, in assay [1], the “Relative to UNC0638 UNC Heavy” value was found to be 0.15 log base 2, the “Relative to UNC0638 UNC Light” value is −0.08 log base 2 and the “Relative to UNC0638 Average” value was 0.03 log base 2. For the same molecule, in assay [2], the “3xMBT/D355N UNC Heavy” value is given as 1.87 log base 2 and the “3xMBT/D355N UNC Light” value turned out to be 1.56 log base 2.

B2: PAICS (protein, UniProt P22234 2-425, looked up)
Bifunctional …: ATAEVLNIGKKLYEGKTKEVYELLDSPGKVLLQSKDQITAGNAARKNHLEGKAAISNKITSCIFQLLQEAGIKTAFTRKCGETAFIAPQCEMIPIEWVCRRIATGSFLKRNPGVKEGYKFYPPKVELFFKDDANNDPQWSEEQLIAAKFCFAGLLIGQTEVDIMSHATQAIFEILEKSWLPQNCTLVDMKIEFGVDVTTKEIVLADVIDNDSWRLWPSGDRSQQKDKQSYRDLKEVTPEGLQMVKKNFEWVAERVELLLKSESQCRVVVLMGSTSDLGHCEKIKKACGNFGIPCELRVTSAHKGPDETLRIKAEYEGDGIPTVFVAVAGRSNGLGPVMSGNTAYPVISCPPLTPDWGVQDVWSSLRLPSGLGCSTVLSPEGSAQFAAQIFGLSNHLVWSKLRASILNTWISLKQADKKIRECNL
In the case of B2, in assay [1], the “Relative to UNC0638 UNC Heavy” value is recorded as −0.03 log base 2, the “Relative to UNC0638 UNC Light” value stood at 0.05 log base 2 and the “Relative to UNC0638 Average” value is given as 0.01 log base 2. Besides, in assay [2], the “3xMBT/D355N UNC Heavy” value turned out to be 1.12 log base 2 and the “3xMBT/D355N UNC Light” value came to 1.04 log base 2.

B3: XPC (protein, UniProt Q01831 2-940, looked up)
DNA repair protein …: ARKRAAGGEPRGRELRSQKSKAKSKARREEEEEDAFEDEKPPKKSLLSKVSQGKRKRGCSHPGGSADGPAKKKVAKVTVKSENLKVIKDEALSDGDDLRDFPSDLKKAHHLKRGATMNEDSNEEEEESENDWEEVEELSEPVLGDVRESTAFSRSLLPVKPVEIEIETPEQAKTRERSEKIKLEFETYLRRAMKRFNKGVHEDTHKVHLLCLLANGFYRNNICSQPDLHAIGLSIIPARFTRVLPRDVDTYYLSNLVKWFIGTFTVNAELSASEQDNLQTTLERRFAIYSARDDEELVHIFLLILRALQLLTRLVLSLQPIPLKSATAKGKKPSKERLTADPGGSSETSSQVLENHTKPKTSKGTKQEETFAKGTCRPSAKGKRNKGGRKKRSKPSSSEEDEGPGDKQEKATQRRPHGRERRVASRVSYKEESGSDEAGSGSDFELSSGEASDPSDEDSEPGPPKQRKAPAPQRTKAGSKSASRTHRGSHRKDPSLPAASSSSSSSKRGKKMCSDGEKAEKRSIAGIDQWLEVFCEQEEKWVCVDCVHGVVGQPLTCYKYATKPMTYVVGIDSDGWVRDVTQRYDPVWMTVTRKCRVDAEWWAETLRPYQSPFMDREKKEDLEFQAKHMDQPLPTAIGLYKNHPLYALKRHLLKYEAIYPETAAILGYCRGEAVYSRDCVHTLHSRDTWLKKARVVRLGEVPYKMVKGFSNRARKARLAEPQLREENDLGLFGYWQTEEYQPPVAVDGKVPRNEFGNVYLFLPSMMPIGCVQLNLPNLHRVARKLDIDCVQAITGFDFHGGYSHPVTDGYIVCEEFKDVLLTAWENEQAVIERKEKEKKEKRALGNWKLLAKGLLIRERLKRRYGPKSEAAAPHTDAGGGLSSDEEEGTSSQAEAARILAASWPQNREDEEKQKLKGGPKKTKREKKAAASHLFPFEQL
B3: in assay [1], the “Relative to UNC0638 UNC Heavy” value was determined as 0.03 log base 2, the “Relative to UNC0638 UNC Light” value was found to be 0.03 log base 2 and the “Relative to UNC0638 Average” value turned out to be 0.03 log base 2. In assay [2], the “3xMBT/D355N UNC Heavy” value is 2.62 log base 2 and the “3xMBT/D355N UNC Light” value came to 3.99 log base 2.
